In paper PMC2064653 (The Journal of Cell Biology, 2007):
Each block holds one molecule with its values, some of them ahead of it.

How the values were obtained:
[1] = target: Myo4p-GFP (S. cerevisiae) (UniProt P32492); assay: single-molecule fluorescence intensity and photobleaching
[2] = target: Myo4/2p (Myo4 motor - Myo2 IQ + C-tail) (S. cerevisiae) (UniProt P32492); assay: cross-linking
cross-linking = target: the molecule itself; assay: cross-linking
[3] = target: the molecule itself; assay: single-molecule fluorescence intensity and photobleaching

B1: Myo2p (TEV-eluted and actin affinity purified from Myo2p-1/2TAP) (natural protein, S. cerevisiae, UniProt P19524 1-1574, looked up)
chain: MSFEVGTRCWYPHKELGWIGAEVIKNEFNDGKYHLELQLEDDEIVSVDTKDLNNDKDQSLPLLRNPPILEATEDLTSLSYLNEPAVLHAIKQRYSQLNIYTYSGIVLIATNPFDRVDQLYTQDMIQAYAGKRRGELEPHLFAIAEEAYRLMKNDKQNQTIVVSGESGAGKTVSAKYIMRYFASVEEENSATVQHQVEMSETEQKILATNPIMEAFGNAKTTRNDNSSRFGKYLEILFDKDTSIIGARIRTYLLERSRLVYQPPIERNYHIFYQLMAGLPAQTKEELHLTDASDYFYMNQGGDTKINGIDDAKEYKITVDALTLVGITKETQHQIFKILAALLHIGNIEIKKTRNDASLSADEPNLKLACELLGIDAYNFAKWVTKKQIITRSEKIVSNLNYSQALVAKDSVAKFIYSALFDWLVENINTVLCNPAVNDQISSFIGVLDIYGFEHFEKNSFEQFCINYANEKLQQEFNQHVFKLEQEEYVKEEIEWSFIEFNDNQPCIDLIENKLGILSLLDEESRLPAGSDESWTQKLYQTLDKSPTNKVFSKPRFGQTKFIVSHYALDVAYDVEGFIEKNRDTVSDGHLEVLKASTNETLINILEGLEKAAKKLEEAKKLELEQAGSKKPGPIRTVNRKPTLGSMFKQSLIELMNTINSTNVHYIRCIKPNADKEAWQFDNLMVLSQLRACGVLETIRISCAGFPSRWTFEEFVLRYYILIPHEQWDLIFKKKETTEEDIISVVKMILDATVKDKSKYQIGNTKIFFKAGMLAYLEKLRSNKMHNSIVMIQKKIRAKYYRKQYLQISQAIKYLQNNIKGFIIRQRVNDEMKVNCATLLQAAYRGHSIRANVFSVLRTITNLQKKIRKELKQRQLKQEHEYNAAVTIQSKVRTFEPRSRFLRTKKDTVVVQSLIRRRAAQRKLKQLKADAKSVNHLKEVSYKLENKVIELTQNLASKVKENKEMTERIKELQVQVEESAKLQETLENMKKEHLIDIDNQKSKDMELQKTIENNLQSTEQTLKDAQLELEDMVKQHDELKEESKKQLEELEQTKKTLVEYQTLNGDLQNEVKSLKEEIARLQTAMSLGTVTTSVLPQTPLKDVMGGGASNFNNMMLENSDLSPNDLNLKSRSTPSSGNNHIDSLSVDRENGVNATQINEELYRLLEDTEILNQEITEGLLKGFEVPDAGVAIQLSKRDVVYPARILIIVLSEMWRFGLTKQSESFLAQVLTTIQKVVTQLKGNDLIPSGVFWLANVRELYSFVVFALNSILTEETFKNGMTDEEYKEYVSLVTELKDDFEALSYNIYNIWLKKLQKQLQKKAINAVVISESLPGFSAGETSGFLNKIFANTEEYTMDDILTFFNSIYWCMKSFHIENEVFHAVVTTLLNYVDAICFNELIMKRNFLSWKRGLQLNYNVTRLEEWCKTHGLTDGTECLQHLIQTAKLLQVRKYTIEDIDILRGICYSLTPAQLQKLISQYQVADYESPIPQEILRYVADIVKKEAALSSSGNDSKGHEHSSSIFITPETGPFTDPFSLIKTRKFDQVEAYIPAWLSLPSTKRIVDLVAQQVVQDGH
stoichiometry N (cross-linking): 2

B2: Myo2p-GFP (natural protein, S. cerevisiae, UniProt P19524 1-1574, looked up)
chain: B1 chain
stoichiometry N [3]: 2

Results, then the molecule that gave them:

stoichiometry N [1]: > 3
Molecule: Myo4p-GFP (from UniProt P32492 1-1471) (natural protein)

stoichiometry N [2]: 2
Molecule: Myo4/2p (Myo4 motor - Myo2 IQ + C-tail) (from UniProt P32492 1-778; P19524 783-1574)
